# Experimental data as given in patent US20220056125A1 (CEPHALON, published 2022).
# Changes are numbered by the printed parent chain. Values joined by “and” are separate entries in the source; they are usually repeats but may differ in a detail not shown here. Equal entries are not always repeated.
# T1: human PAR-2 (human, UniProt P55085 26-397)
# T1 sequence: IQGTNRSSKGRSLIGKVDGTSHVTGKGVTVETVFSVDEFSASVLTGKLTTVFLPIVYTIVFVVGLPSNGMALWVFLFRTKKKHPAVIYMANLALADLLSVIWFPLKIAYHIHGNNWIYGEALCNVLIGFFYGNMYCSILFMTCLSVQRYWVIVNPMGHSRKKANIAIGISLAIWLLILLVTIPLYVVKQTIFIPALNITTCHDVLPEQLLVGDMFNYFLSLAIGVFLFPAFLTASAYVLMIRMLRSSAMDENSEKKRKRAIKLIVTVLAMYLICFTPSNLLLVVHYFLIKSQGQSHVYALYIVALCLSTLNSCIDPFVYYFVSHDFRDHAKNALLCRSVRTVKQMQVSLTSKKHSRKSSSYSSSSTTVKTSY
# B1: P24E915 (antibody, human IgG4 S228P, kappa, V domains shown)
# VH: QVQLVQSGAEVKKPGSSVKVSCKASGFSLSSYAISWVRQAPGQGLEWMGVIWGNGNTYYAQKFQGRVTITADESTSTAYMELSSLRSEDTAVYYCARWKGYKDYPFDYWGQGTLVTVSS
# VL: EIVLTQSPATLSLSPGERATLSCKASQNVYKWLDWYQQKPGQAPRLLIYNAYSLATGIPARFSGSGSGRDFTLTISSLEPEDFAVYYCQQHNSGWTFGGGTKVEIKR
# B2: P24E186 (antibody, human IgG4 S228P, kappa, V domains shown)
# VH: B1 VH with S30N, A33G, I34V, S35I, A60N, K99R, Y101W
# VL: B1 VL with V29I, W32Y, A51T, Y52N, A55H, Q89L
# B3: P24E9 (antibody, human IgG4 S228P, kappa, V domains shown)
# VH: B1 VH with A33G, I34V, S35I, A60N, K99R
# VL: B1 VL with V29I, W32Y, A51T, Y52N, A55H, Q89L
# B4: P24E977 (antibody, human IgG4 S228P, kappa, V domains shown)
# VH: B1 VH with G55Q, T57V
# VL: B1 VL with K24R, N50D, L54R, N92H
# B5: P24E951 (antibody, human IgG4 S228P, kappa, V domains shown)
# VH: B1 VH with G55Q, T57V
# VL: B1 VL with K24R, L54R, N92G
# B6: P24E40 (antibody, human IgG4 S228P, kappa, V domains shown)
# VH: B1 VH with S30N, A33G, I34V, S35I, A60N, K99R
# VL: B1 VL with V29I, W32Y, A51T, Y52N, Q89L
# B7: P24E917 (antibody, human IgG4 S228P, kappa, V domains shown)
# VH: B1 VH
# VL: B1 VL with N92G
# B8: P24E22 (antibody, human IgG4 S228P, kappa, V domains shown)
# VH: B1 VH with S30N, A33G, I34V, S35I, K99R
# VL: B1 VL with V29I, W32Y, A51T, Y52N, A55H, Q89L
# B9: P24E924 (antibody, human IgG4 S228P, kappa, V domains shown)
# VH: B1 VH with K99R, Y101W
# VL: B1 VL with K24R, L54R
# B10: P24E278 (antibody, human IgG4 S228P, kappa, V domains shown)
# VH: B1 VH with A33G, I34V, S35I, K99R
# VL: B1 VL with V29I, W32Y, A51T, Y52N, Q89L
# B11: P24E933 (antibody, human IgG4 S228P, kappa, V domains shown)
# VH: B1 VH
# VL: B1 VL with K24R, L54R, N92G
# B12: P24E61 (antibody, human IgG4 S228P, kappa, V domains shown)
# VH: B1 VH with S30N, A33G, I34V, S35I, A60N, K99R
# VL: B1 VL with V29I, W32F, A51T, Y52N, A55H, Q89L
# B13: P24E953 (antibody, human IgG4 S228P, kappa, V domains shown)
# VH: B1 VH with G55Q, T57V
# VL: B1 VL with K24R, N50D, L54R, N92G
# B14: P24E219 (antibody, human IgG4 S228P, kappa, V domains shown)
# VH: B1 VH with S30N, A33G, I34G, S35I, A60N, K99R
# VL: B1 VL with V29I, W32Y, A51T, Y52N, A55H, Q89L
# B15: P24E922 (antibody, human IgG4 S228P, kappa, V domains shown)
# VH: B1 VH with K99R, Y101W
# VL: B1 VL with K24R, V29I
# B16: P24E934 (antibody, human IgG4 S228P, kappa, V domains shown)
# VH: B1 VH with T57V, Y104H
# VL: B1 VL with K24R, L54R, N92H
# B17: P24E973 (antibody, human IgG4 S228P, kappa, V domains shown)
# VH: B1 VH with T57V
# VL: B1 VL with K24R, L54R, N92G, S93H
# B18: P24E971 (antibody, human IgG4 S228P, kappa, V domains shown)
# VH: B1 VH with T57V
# VL: B1 VL with K24R, L54R, N92H
# B19: P24E923 (antibody, human IgG4 S228P, kappa, V domains shown)
# VH: B1 VH with K99R, Y101W
# VL: B1 VL
# B20: P24E930 (antibody, human IgG4 S228P, kappa, V domains shown)
# VH: B1 VH with T57V
# VL: B1 VL with K24R, L54R, N92G
# B21: P24E216 (antibody, human IgG4 S228P, kappa, V domains shown)
# VH: B1 VH with S30N, S31Y, A33G, I34V, S35I, A60N, K99R
# VL: B1 VL with V29I, W32Y, A51T, Y52N, A55H, Q89L
# B22: P24E916 (antibody, human IgG4 S228P, kappa, V domains shown)
# VH: B1 VH
# VL: B1 VL with K24R, L54R
# B23: P24E41 (antibody, human IgG4 S228P, kappa, V domains shown)
# VH: B1 VH with S30N, A33G, I34V, S35I, A60N, K99R
# VL: B1 VL with V29I, W32Y, N50D, Y52S, S53N, L54R, Q89L
# B24: P24E60 (antibody, human IgG4 S228P, kappa, V domains shown)
# VH: B1 VH with S30N, A33G, I34V, S35I, A60N, K99R
# VL: B1 VL with V29I, A51T, Y52N, A55H, Q89L
# B25: P24E919 (antibody, human IgG4 S228P, kappa, V domains shown)
# VH: B1 VH with K99R, Y101F
# VL: B1 VL
# B26: P24E932 (antibody, human IgG4 S228P, kappa, V domains shown)
# VH: B1 VH with T57V
# VL: B1 VL with K24R, V29I
# B27: P24E282 (antibody, human IgG4 S228P, kappa, V domains shown)
# VH: B1 VH with A33G, I34V, S35I, K99R
# VL: B1 VL with V29I, W32Y, A51T, Y52N, L54R, Q89L
# B28: P24E936 (antibody, human IgG4 S228P, kappa, V domains shown)
# VH: B1 VH with T57V, Y104H
# VL: B1 VL with K24R, L54R, N92G, S93H
# B29: P24E918 (antibody, human IgG4 S228P, kappa, V domains shown)
# VH: B1 VH with K99R, Y101F
# VL: B1 VL with K24R, V29I
# B30: P24E920 (antibody, human IgG4 S228P, kappa, V domains shown)
# VH: B1 VH with K99R, Y101F
# VL: B1 VL with K24R, L54R
# B31: P24E233 (antibody, human IgG4 S228P, kappa, V domains shown)
# VH: B1 VH with S30N, A33G, I34V, S35I, A60Y, K99R
# VL: B1 VL with V29I, W32Y, A51T, Y52N, A55H, Q89L
# B32: P24E972 (antibody, human IgG4 S228P, kappa, V domains shown)
# VH: B1 VH with T57V
# VL: B1 VL with K24R, L54R, N92H, S93H
# B33: P24E921 (antibody, human IgG4 S228P, kappa, V domains shown)
# VH: B1 VH with K99R, Y101F
# VL: B1 VL with N92G
# B34: P24E280 (antibody, human IgG4 S228P, kappa, V domains shown)
# VH: B1 VH with A33G, I34V, S35I, K99R
# VL: B1 VL with W32Y, A51T, Y52N, Q89L
# B35: P24E975 (antibody, human IgG4 S228P, kappa, V domains shown)
# VH: B1 VH with G55Q, T57V
# VL: B1 VL with K24R, L54R, N92H, S93H
# B36: P24E281 (antibody, human IgG4 S228P, kappa, V domains shown)
# VH: B1 VH with A33G, I34V, S35I, K99R
# VL: B1 VL with V29I, W32Y, Y52N, Q89L
# B37: P24E978 (antibody, human IgG4 S228P, kappa, V domains shown)
# VH: B1 VH with G55Q, T57V
# VL: B1 VL with K24R, N50D, L54R, N92H, S93H
# B38: P24E279 (antibody, human IgG4 S228P, kappa, V domains shown)
# VH: B1 VH with A33G, I34V, S35I, K99R
# VL: B1 VL with K24R, V29I, W32Y, A51T, Y52N, Q89L
# B39: P24E232 (antibody, human IgG4 S228P, kappa, V domains shown)
# VH: B1 VH with S30N, A33G, I34V, S35I, A60G, K99R
# VL: B1 VL with V29I, W32Y, A51T, Y52N, A55H, Q89L
# B40: P24E931 (antibody, human IgG4 S228P, kappa, V domains shown)
# VH: B1 VH with T57V
# VL: B1 VL with N92G
# B41: P24E935 (antibody, human IgG4 S228P, kappa, V domains shown)
# VH: B1 VH with T57V, Y104H
# VL: B1 VL with K24R, L54R, N92H, S93H
# Target: T1, human PAR-2
# Experiment: cell-based or functional assay
Binder,"PAR-2 β-arrestin cell based assay IC50, 2 µM SLIGKV",further results
B1,1.16 nM,–
B2,–,"PAR-2 β-arrestin cell based assay IC50, 1 µM SLIGKV: 3.25 nM"
B3,–,"PAR-2 β-arrestin cell based assay IC50, 1 µM SLIGKV: 11.3 nM"
B4,1.73 nM,–
B5,2.55 nM and 1.17 nM,–
B6,–,"PAR-2 β-arrestin cell based assay IC50, 1 µM SLIGKV: 2.47 nM"
B7,0.93 nM,–
B8,–,"PAR-2 β-arrestin cell based assay IC50, 1 µM SLIGKV: 2.5 nM"
B9,0.79 nM,–
B10,2.5 nM,–
B11,1.4 nM,–
B12,–,"PAR-2 β-arrestin cell based assay IC50, 1 µM SLIGKV: 2.56 nM"
B13,3.64 nM and 1.84 nM,–
B14,–,"PAR-2 β-arrestin cell based assay IC50, 1 µM SLIGKV: 1.33 nM"
B15,1.01 nM,–
B16,1.5 nM,–
B17,2.35 nM,–
B18,2.4 nM,–
B19,0.99 nM,–
B20,1.4 nM,PAR-2 β-arrestin cell based assay IC50 (SLIGKV mark missing): 1.7 nM
B21,–,"PAR-2 β-arrestin cell based assay IC50, 1 µM SLIGKV: 1.95 nM"

Binder,"PAR-2 β-arrestin cell based assay IC50, 2 µM SLIGKV",further results
B22,1.1 nM,–
B23,–,"PAR-2 β-arrestin cell based assay IC50, 1 µM SLIGKV: 26.9 nM"
B24,–,"PAR-2 β-arrestin cell based assay IC50, 1 µM SLIGKV: 2.03 nM"
B25,1.44 nM,–
B26,1.4 nM,–
B27,2 nM,–
B28,1.8 nM,–
B29,1.18 nM,–
B30,1.32 nM,–
B31,–,"PAR-2 β-arrestin cell based assay IC50, 1 µM SLIGKV: 1.77 nM"
B32,1.52 nM,–
B33,1.9 nM,–
B34,1.9 nM,–
B35,0.75 nM,–
B36,2.6 nM,–
B37,0.94 nM,–
B38,2.8 nM,–
B39,–,"PAR-2 β-arrestin cell based assay IC50, 1 µM SLIGKV: 1.99 nM"
B40,2 nM,–
B41,1.5 nM,–
